In test [1] the target is N-terminal domain of major ampullate silk protein (MaSpN) from Nephila antipodiana, construct T1-E137 (Nephila antipodiana). Kind of test: SEC; Superdex 200 Increase 10/300 GL, 20 mM sodium phosphate pH 7.0, 50 mM NaCl, ~600 µM protein injected; self-association. (In general: SEC sorts molecules by how far they enter the pores of the column.)
Test [2] shares this target. Kind of test: AUC; sedimentation velocity, 1.5 mg/mL protein, 20 mM phosphate, 0 mM NaCl, pH 7.0-8.0 (mutants and MaSpN at pH 7.0), 24 °C; self-association.
Test [3] deals with N-terminal domain of aciniform silk protein (AcSpN) from Nephila antipodiana, construct S15-E153 (renumbered S4-E142) (Nephila antipodiana). The test can be described thus: AUC; sedimentation velocity, 1.5 mg/mL protein, 20 mM phosphate, 150 mM NaCl, pH < 7.0, 24 °C; self-association.
Test [4] has the same target. Kind of test: AUC; sedimentation velocity, 1.5 mg/mL protein, 20 mM phosphate, 300 mM NaCl, pH 5.85 and 5.50, 24 °C; self-association.
For test [5] the target is unchanged. Kind of test: AUC; sedimentation velocity, 1.5 mg/mL protein, 20 mM phosphate, 150 mM NaCl, pH ≥ 7.0 (mutants and MaSpN at pH 7.0), 24 °C; self-association.
The target in test [6] is AcSpN K122E mutant (Nephila antipodiana) (Nephila antipodiana). The test is described as above.
In test [7] the target is AcSpN R107E mutant (Nephila antipodiana) (Nephila antipodiana). The test can be described thus: AUC; sedimentation velocity, 1.5 mg/mL protein, 20 mM phosphate, 0 mM NaCl, pH 7.0-8.0 (mutants and MaSpN at pH 7.0), 24 °C; self-association.
In test [8] the target is AcSpN K103E mutant (Nephila antipodiana) (Nephila antipodiana). The test is described as above.
Test [9] concerns the target AcSpN A71R mutant (Nephila antipodiana) (Nephila antipodiana). The test can be described thus: AUC; sedimentation velocity, 1.5 mg/mL protein, 20 mM phosphate, 300 mM NaCl, pH 7.0-8.0 (mutants and MaSpN at pH 7.0), 24 °C; self-association.

The term stoichiometry N denotes the number of molecules, sites or subunits per partner or assembly. In the case of “N-terminal domain of major ampullate silk protein (MaSpN) from Nephila antipodiana, construct T1-E137 (domain or fragment)”, the stoichiometry N in test [1] and in test [2] was 2 each time.
Regarding “N-terminal domain of aciniform silk protein (AcSpN) from Nephila antipodiana, construct S15-E153 (renumbered S4-E142) (domain or fragment)”, the stoichiometry N in [3], in [4] and in [5] was 2 throughout.
Take “AcSpN K122E mutant (Nephila antipodiana) (domain or fragment)”: the stoichiometry N in [6] was determined as 2.
Consider “AcSpN R107E mutant (Nephila antipodiana) (domain or fragment)”, for which, in test [7], the stoichiometry N is 2.
For “AcSpN K103E mutant (Nephila antipodiana) (domain or fragment)”, in test [8], the stoichiometry N stood at 2.
“AcSpN A71R mutant (Nephila antipodiana) (domain or fragment)”: the percent in a dimeric form in test [9] came out at 10%.

The record behind these values is paper PMC7352312.
